Data reported in patent US5985630A, “Assay for detecting inhibitors of aminoacyl-tRNA synthetases” (Zeneca Limited, priority 1993, dated 1999).

Experiments:
Format in all cases: biochemical, E. coli
[1] = tested on: T1, CC(C)[C@H](N)C(=O)O; experiment: Colorimetric assay based on valine as substrate (valine-based assay of the invention); conditions: other: non-cognate amino acid substrate of ITRS; pH 7.4; 37.0 °C
T1 construct: endogenous in cells; enzyme partially purified in house
Procedure: (§1) 2. Measurement of ITRS activity using a Colorimetric Assay based on using Valine as Substrate
(§2) Incubations were set up in quadruplicate (as above) with a final volume of 200 μl as described below. Stock reagents used in the method were as follows:
(§3) Prepared as described above. The specific activity of the enzyme used in the present example was approximately 145 nM of product formed/minute/mg, and was about 5%-10% active. The enzyme was diluted as appropriate. It will be appreciated that the enzyme amounts in the assay can be adjusted according to the purity of the enzyme used.
(§4) The assay mixture for a final volume of 200 μl was composed of:
(§5) The standard assay (in 200 μl) was carried out in quadruplicate in Eppendorf microcentrifuge tubes. The ingredients were pre-incubated for 2-3 minutes at 37° C. and the reaction started by addition of 20 μl of appropriately diluted enzyme extract (as described above).
(§6) Thus the final reaction contained reagents in the following concentrations:
(§7) 0.12 mg of mixed tRNA species from E. coli (as described above) HPLC purified from […] available from by Sigma (UK) Ltd 1 unit/μl of inorganic pyrophosphatase and
(§8) an appropriate concentration of ITRS (for example […] of the enzyme as described above).
(§9) The samples were incubated at 37° C. for 20-60 minutes. […] The optical absorbance is then measured at a wavelength of 630 nm using a spectrophotometer.

[2] = tested on: T2, Nc1ncnc2c1ncn2[C@@H]1O[C@H](COP(=O)(O)OP(=O)(O)OP(=O)(O)O)[C@@H](O)[C@H]1O; experiment: as above; conditions: other: colorimetric assay; pH 7.4; 37.0 °C
T2 construct: endogenous in cells; enzyme partially purified in house
Procedure: as §1, §2, §3, §4, §5, §6, §7, §8, §9

[3] = tested on: T3, CC[C@H](C)[C@H](N)C(=O)O; experiment: 3H-isoleucine-based radiolabelled (standard radiometric) assay; conditions: other: 3H-Ile assay; pH 7.4; 37.0 °C
T3 construct: endogenous in cells; enzyme partially purified in house
Procedure: (§10) 2. Measurement of ITRS Activity using a ^3 H-Isoleucine-Based Radiolabelled Assay
(§11) The activity of ITRS during fractionation was monitored using conditions based on the method described by Steinmetz and Weil (7), and as described below. Stock reagents used in the method are as follows:
as §3, §4
(§12) The standard assay (in 200 μl) was carried out in quadruplicate in Eppendorf microcentrifuge tubes. The ingredients were preincubated for 2-3 minutes at 37° C., and the reaction started by addition of approximately 20 μl of the appropriately diluted enzyme extract as described above.
(§13) The final reaction contained reagents in the following concentrations:
(§14) 0.1% bovine serum albumin […]
(§15) 200 μl of the reaction mixture was pipetted onto 1.5 cm^2 cellulose 3MM filters. […] The dried filters were placed in 20 ml scintillation vials and the radioactivity counted in 15 ml Optiphase.
(§16) The inhibition constants of two compounds were measured and the results compared with the values obtained using the standard ^3 H-isoleucine assay.

[4] = tested on: T2, Nc1ncnc2c1ncn2[C@@H]1O[C@H](COP(=O)(O)OP(=O)(O)OP(=O)(O)O)[C@@H](O)[C@H]1O; experiment: as above; conditions: other: 3H-Ile assay; pH 7.4; 37.0 °C
Procedure: as §10, §11, §3, §4, §12, §13, §14, §15, §16

Substance: E. coli ITRS (isoleucyl-tRNA synthetase) (Escherichia coli K-12)
- Km [1]: 500 µM
- Km [2]: 48 µM
- Km [3]: 4.3 µM
- Km [4]: 47 µM
